Drawing on patent US20160194389A1, this text covers FcRn-affinity column retention time, retention time and RT [min] (retention time on the FcRn affinity column) for 16 substances.

The target in the first test is human neonatal Fc-receptor (FcRn) (human) (UniProt P55899). The test is described as follows: FcRn affinity column chromatography.
Sequence of human neonatal Fc-receptor (FcRn) (human) (P55899 24-297 limits assumed, chain 1 of 2): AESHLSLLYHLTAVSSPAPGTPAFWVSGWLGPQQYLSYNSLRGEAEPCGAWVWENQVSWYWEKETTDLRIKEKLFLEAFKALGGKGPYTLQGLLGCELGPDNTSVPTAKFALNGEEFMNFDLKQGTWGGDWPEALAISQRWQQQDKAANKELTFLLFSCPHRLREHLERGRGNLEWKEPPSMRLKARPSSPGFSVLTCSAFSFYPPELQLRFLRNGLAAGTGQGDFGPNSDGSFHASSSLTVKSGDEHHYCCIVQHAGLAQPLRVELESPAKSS
Sequence of human neonatal Fc-receptor (FcRn) (human) (P61769 21-119 limits assumed, chain 2 of 2, further chain): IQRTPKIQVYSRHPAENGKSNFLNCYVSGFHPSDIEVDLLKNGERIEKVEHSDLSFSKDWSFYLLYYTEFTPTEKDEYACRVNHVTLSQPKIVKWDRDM
“symmetrically engineered IgG1 Fc-region, L234A/L235A/P329G with Y436A (antibody)” had a FcRn-affinity column retention time of 41.3 min.

“symmetrically modified anti-HER2 antibody, mutation D98E” gave a retention time of 46.2 min. On the same count and under the same terms, the value for “symmetrically modified anti-HER2 antibody, mutation E258H” was 45.6 min; that for “symmetrically modified anti-HER2 antibody, mutation E430H” was 46.4 min. Still for that read-out and setting: the value for “symmetrically modified anti-HER2 antibody, mutation K288E” was 45.2 min; that for “symmetrically modified anti-HER2 antibody, mutation K290H” was 46.2 min. Regarding “symmetrically modified anti-HER2 antibody, mutation K317H”, the retention time amounted to 46.3 min. Still for that read-out and setting: then “symmetrically modified anti-HER2 antibody, mutation L309H”, with 45.5 min. Still for that read-out and setting: then “symmetrically modified anti-HER2 antibody, mutation N434H”, with 52 min. Still for that read-out and setting: then “symmetrically modified anti-HER2 antibody, mutation Q311H”, with 46.3 min; and “symmetrically modified anti-HER2 antibody, mutation R255D”, with 41.4 min. Take “symmetrically modified anti-HER2 antibody, mutation T256H”: the retention time turned out to be 46 min.

The next test shares this target. The test is described as follows: FcRn affinity chromatography of the knobs-into-holes anti-VEGF/ANG2 antibody.
In turn, “bispecific anti-VEGF/ANG2 antibody (knobs-into-holes), first chain with I253A/H310A/H435A and second chain with H310A (bispecific antibody)” showed an RT [min] (retention time on the FcRn affinity column) of 0 min.

For the substance “bispecific anti-VEGF/ANG2 antibody (knobs-into-holes), first chain with I253A/H310A/H435A and second chain with H435A (bispecific antibody)”, the RT [min] (retention time on the FcRn affinity column) is 0 min. Same read-out and setting: the value for “bispecific anti-VEGF/ANG2 antibody (knobs-into-holes), first chain with I253A/H310A/H435A and second chain with I253A/H310A/H435A (bispecific antibody)” was 0 min; that for “bispecific anti-VEGF/ANG2 antibody (knobs-into-holes), no FcRn affecting mutation (bispecific antibody)” was 52.8 min.
